Experimental data reported in patent publication US20230250158A1.

Experiments:
[1] = target: SARS-CoV-2 Spike S2-hFc (SARS-CoV-2), P0DTC2; assay: Octet, Fab as analyte over S2-hFc on AHC sensor; settings: remark: other sources report otherwise
[2] = target: SARS-CoV-2 Spike S2-hFc (SARS-CoV-2), P0DTC2; assay: Octet BLI; Fab as analyte over S2-hFc on AHC sensors; steady-state analysis; settings: remark: other sources report otherwise

B1: 2-A6 Fab (Fab, V domains shown)
VH: QVTLRESGPALVKPTQTLTLTCTFSGFSLNTRGMSVSWIRQPPGKALEWLALIDWEDDKFYRTSLMTRLTISKDIFKNQVVLTMTNVDPVDTGTYYCARTYSVGVKYFGMDVWGQGTTVTVSS
VL: SSELTQDPAVSVALGQTVRITCQGDSLRNYYASWYRQEPGQAPILLIYGGNYRPSGIPDRFSGSSSGNTASLTITGAQAEDEADYYCNSRDSSGNHVVFGGGTKLTVL
Binder B1 has a Kd [1] of 900 nM and a Kd [2] of 913 nM.
